Biological target: the molecule itself
Assay: SEC; Superdex 200 Increase 10/300 GL; molecular weight by elution (Fig. S2)

B1: PnaoΔN30 (residues 31–497) (enzyme, Pseudomonas putida S16, UniProt F8G0P1 31-496, looked up)
chain: IASQLLTLSAPAEAAVKTNVGPSRAGVGYDVIVIGGGFAGVTAAREASRSGLKTLILEGRSRLGGRTFTSKLQNQKVELGGTWVHWTQPNVWTEIMHYGLEVEETVGLANPETVIWVTEDNVKRAPAAEAFEIFGSACNEYYKEARNIYPRPFEPFFERKKLQHVDGLSAADYLEKLPLTREQKDMMDSWLSGNGHNYPETIAYSEIMRWFALSNFNMPTMFDSIARYKIKTGTHSLLEAIMADGNSEVKLSTPVTKVNQDKDKVTVTTEDGVFTASAVIVAVPINTLHDIEYSPKLSAAKVDMGSQRHAGAGVKGYIRVKQNVGNVMTYAPARNKLTPFTSVFTDHVDESGTLLIAFSADPKLIDINDIKAVEKALQPLLPGVEVTASYGYDWNLDPFSKGTWCTYRPNQTTRYLTELQKREGRLFFAGSDMANGWRGFIDGAIENGREVGHQVATYLKRENDNA
notes: Pnao, flavin-dependent pseudooxynicotine oxidase of Pseudomonas putida S16; N-terminal truncation of 30 residues, residues 31-497; Cloned in pET-28a between NcoI and XhoI, which probably gives a C-terminal His6 tag; also called pseudooxynicotine amine oxidase; source: E. coli BL21(DE3), purified (Ni2+-NTA, size-exclusion chromatography)
With B1 as the protein, how does the “stoichiometry N” value read?
The value was 2.

— article PMC11481913, “Rational design of a flavoenzyme for aerobic nicotine catabolism” (mBio, 2024)
